These results are taken from patent US9801923B2, “Fusion proteins containing insulin-like growth factor-1 and epidermal growth factor and variants thereof and uses thereof” (IGF Oncology, LLC, priority 2014, dated 2017).

Where two headings read alike, the source gives them in different places.

Data set [1] concerns L929 cells. In words: 765TNFa activity assay, killing of L929 cells. To be noted: 24 hours. The class given is cell-based. As for the experimental part: L929 cells were plated at 10,000 cells per well in two 96-well plates in their recommended growth medium with 2% fetal bovine serum. They were grown for 2 days at 37° C. in a 5% CO2 humidified atmosphere. In one plate, after the 2 days incubation 1 ug/ml final concentration actinomycin D was added; in the other plate no actinomycin D was added. 765TNFa was then added at a range of concentrations. Plates were incubated 24 hours more. Then cell viability was quantified with DOJINDO cell counting kit-8 according to manufacturer's instructions. […] These are even lower IC50s than are reported in the literature for TNF-alpha.

The test system of data set [2] is MCF-7 tumor cells. Nature of the data set: in vitro cytotoxicity assay, inhibition of proliferation of MCF-7 tumor cells. It counts as cell-based. Particulars: Homo sapiens, MCF7, read-out: IC50 (concentration needed for 50% inhibition of cell proliferation).
Method: Five-thousand MCF7 cells were plated per well in a 96-well test plate in 100 ul of rich media on day 0. A shadow plate was made for each test plate, with each well of the shadow plate containing media or 3× the intended final concentration of test agent in media in each well. As a negative control, media is used. […] After making the shadow plate, 50 ul is transferred from each well of the shadow plate to the corresponding well of the test plate to generate the final concentrations of test agent in the wells of the test plate. Cell proliferation is determined by adding Dojindo CCK-8 reagent and incubating and measuring absorbance of the dye according to the manufacturer's instructions.
Data set [3] has as its system A-431 human epithelial carcinoma cells. In words: in vitro proliferation inhibition of A-431 cells. It counts as cell-based. To be noted: 4 days with drug. As to the method:
A-431 human epithelial carcinoma cells were seeded at 5,000 cells per well in 96-well plates and grown for 1 day. A-431 cells have abundant EGF receptors. After 1 day growth, free bendamustine and 765EGF-bendamustine were added to the plate at concentrations ranging from 200 micromolar bendamstine to 6 nM and from 20 microEq/L 765EGF-bendamustine down to 0.6 nM. The plates were incubated with drug at 37 degrees C. under a humidified 5% CO2 atmosphere for 4 days, and then DOJINDO cell counting kit-8 reagent was added to wells to read proliferation. The plates were read according to manufacturer's instruction. There was a huge difference between free bendamustine and EGF-bendamustine. […] The difference in effectiveness was more than 1000-fold expressed in terms of the concentration of bendamustine groups.

The format of data set [4] is physicochemical. An excerpt:
These smaller fragments are seen on SDS-PAGE.

Data set [5] has as its target IGF receptors (Homo sapiens, UniProt P08069). In words: competition binding of refolded IGF fusion proteins to IGF receptors against radioactive wild type IGF. To be noted: Ni eluates refolded 3 hours at room temperature, read-out: approximate binding constants (KDs). As to the method: 2 ml of each of the original Ni eluates from Example 1 was mixed with about an equal volume of 100 mM glycine, 6 M urea, pH 9.5, concentrated by ultrafiltration in a CENTRICON 3 kDa filter unit, then brought up again in that buffer and concentrated to about 420 ul. Then they were diluted to 2 mg/ml for 403IGF, 764IGF, and 765IGF, and 4 mg/ml for 784IGF and 2.4 mg/ml for 785IGF.
200 ul of each of these was mixed rapidly with 1.8 ml of refold buffer. Refold buffer was 1.4 M urea, 100 mM glycine, 0.5 M NaCl, 19% ethanol, 0.5 mM GSSG, 4 mM GSH, pH 9.5. They were refolded at room temperature for 3 hours, and then tested in a binding assay for competition binding to IGF receptors against […] radioactive wild type IGF (Perkin Elmer, Inc.) For comparison, commercial Long-R3-IGF (LR3IGF) was also tested.

The target of data set [6] is T1, type 1 IGF receptors on MCF7 cells (Homo sapiens, UniProt P08069).
T1 construct: type 1 IGF receptors that are abundant on MCF7 cells; host or cells: MCF7
In words: 765IGF binding assay to IGF-1 receptor on MCF7 cells (125I IGF-1 competition). Particulars: overnight at 4° C. As for the experimental part: Theory of assay: Radioactive ^125I labeled insulin-like growth factor-1 (IGF-1) competes with a test ligand for binding to type 1 IGF receptors that are abundant on MCF7 cells (a human breast cancer cell line) in vitro.
MCF7 cell media: 500 mL MEM, 0.01 mg/mL bovine insulin; 5 mL sodium pyruvate, 5 mL non-essential amino acids, 10 mL sodium bicarbonate, 10 mL fetal bovine serum, 5 mL penicillin/streptomycin.
MCF7 cells (ATCC HTB-22) were plated at 20,000 cells per well in a volume of 0.5 mL/well in a 48-well tissue culture plate (flat bottom with low evaporation lid) and placed in a cell culture incubator set at 37° C. with 5% CO2. After 2-3 days in culture the plates were washed 2× with 0.5 mL per well of cold binding assay buffer (100 mM Hepes-NaOH, pH 7.2; 120 mM NaCl; 5 mM KCl; 1.2 mM MgSO4; 0.1% BSA). After the final wash, 0.5 mL of binding assay buffer was added to each well and the plates are placed at 4° C. for 2 to 6 hours.
Test ligands were prepared at a concentration of 10 micromolar (long-R3-IGF) or 20 micromolar (765IGF and IGF-MTX) in 5 mM HCl in a volume of 200 ul. To determine the concentration, the molecular weight of 765IGF (9742 daltons) and long-R3-IGF (9111 daltons) are used. […]
The plates were then incubated overnight at 4° C. […] Cells were lysed with 0.5 mL 300 mM NaOH, 1% SDS and the lysates were counted on a gamma counter.

For data set [7], the system named is MCF-7 tumor cells. To be noted: for comparison, McTavish et al., 2009; cited from earlier work.
In data set [8] the target is T2, dihydrofolate reductase (DHFR) (Homo sapiens, UniProt P00374).
T2 construct: purchased Sigma-Aldrich
T2 sequence (P00374 1-187): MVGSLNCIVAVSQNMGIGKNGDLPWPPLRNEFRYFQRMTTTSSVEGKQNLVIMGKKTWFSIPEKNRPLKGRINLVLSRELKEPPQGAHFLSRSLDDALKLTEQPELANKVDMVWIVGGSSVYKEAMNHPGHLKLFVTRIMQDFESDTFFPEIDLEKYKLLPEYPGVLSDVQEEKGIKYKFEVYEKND
In words: inhibition of dihydrofolate reductase (Sigma-Aldrich assay kit). The class given is biochemical. As to the method: The experiments were done with the dihydrofolate reductase assay kit from Sigma-Aldrich (St. Louis, Mo., USA), according to the manufacturer's instructions. In the assay dihydrofolate reductase is mixed with pH 7.5 buffer. […] It was incubated for 30 seconds to allow inhibitor binding. Then NADPH is added to 50 uM final concentration, and then dihydrofolic acid is added to 60 uM final concentration. The reaction is monitored by measuring absorbance at 340 nm.

IGF receptors, sequence (P08069 31-736 limits assumed): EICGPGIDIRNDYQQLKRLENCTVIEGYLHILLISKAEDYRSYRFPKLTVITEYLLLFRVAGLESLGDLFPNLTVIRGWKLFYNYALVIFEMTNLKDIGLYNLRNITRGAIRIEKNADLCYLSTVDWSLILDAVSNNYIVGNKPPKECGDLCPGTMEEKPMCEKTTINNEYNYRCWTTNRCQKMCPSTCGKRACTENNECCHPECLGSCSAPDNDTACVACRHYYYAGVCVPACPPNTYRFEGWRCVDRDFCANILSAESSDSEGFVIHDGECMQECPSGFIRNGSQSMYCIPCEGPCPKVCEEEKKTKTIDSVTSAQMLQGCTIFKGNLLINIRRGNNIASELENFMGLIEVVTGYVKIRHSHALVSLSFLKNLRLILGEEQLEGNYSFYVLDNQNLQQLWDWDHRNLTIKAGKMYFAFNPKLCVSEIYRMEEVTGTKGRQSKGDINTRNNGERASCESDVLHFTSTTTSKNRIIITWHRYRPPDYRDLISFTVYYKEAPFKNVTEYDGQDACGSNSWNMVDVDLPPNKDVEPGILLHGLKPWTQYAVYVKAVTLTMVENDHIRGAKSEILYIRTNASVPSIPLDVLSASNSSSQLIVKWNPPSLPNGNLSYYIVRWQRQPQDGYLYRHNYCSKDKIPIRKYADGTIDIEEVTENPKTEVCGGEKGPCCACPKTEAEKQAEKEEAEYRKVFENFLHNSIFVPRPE
IGF receptors, sequence (P08069 741-1367 partner limits assumed): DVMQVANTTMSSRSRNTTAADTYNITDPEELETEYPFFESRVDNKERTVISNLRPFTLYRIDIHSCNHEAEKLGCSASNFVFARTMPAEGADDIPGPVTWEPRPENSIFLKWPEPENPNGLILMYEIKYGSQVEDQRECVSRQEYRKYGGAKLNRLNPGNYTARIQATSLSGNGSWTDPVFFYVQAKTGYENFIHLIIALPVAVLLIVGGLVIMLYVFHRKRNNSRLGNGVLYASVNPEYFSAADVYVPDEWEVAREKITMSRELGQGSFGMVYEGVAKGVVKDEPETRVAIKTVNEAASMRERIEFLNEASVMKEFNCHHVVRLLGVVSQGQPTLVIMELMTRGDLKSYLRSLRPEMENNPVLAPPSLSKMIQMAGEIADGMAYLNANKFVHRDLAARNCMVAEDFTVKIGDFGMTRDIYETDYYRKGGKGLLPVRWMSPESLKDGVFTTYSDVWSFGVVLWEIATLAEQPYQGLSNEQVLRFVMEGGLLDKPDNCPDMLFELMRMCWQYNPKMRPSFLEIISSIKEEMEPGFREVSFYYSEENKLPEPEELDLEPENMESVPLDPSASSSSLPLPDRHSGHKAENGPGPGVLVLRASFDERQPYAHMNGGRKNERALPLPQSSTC
T1 sequence (P08069 31-736 limits assumed): as the sequence (P08069 31-736 limits assumed) above
T1 sequence (P08069 741-1367 partner limits assumed): as the sequence (P08069 741-1367 partner limits assumed) above

“765TNFa: soluble form of tumor necrosis factor alpha fused to SEQ ID NO:1 leader, SEQ ID NO:17”: the “IC50 for killing the cells” value in data set [1] (L929 cells with 1 ug/ml actinomycin) is “less than 79 pg/ml”; in data set [1] (L929 cells with no actinomycin) it was “about 70 ng/ml”.

For the molecule `CN(Cc1cnc2nc(N)nc(N)c2n1)c1ccc(C(=O)N[C@@H](CCC(=O)O)C(=O)O)cc1` [Methotrexate, methotrexate], the IC50 in data set [2] was found to be 88 nM.

Consider `Cn1c(CCCC(=O)O)nc2cc(N(CCCl)CCCl)ccc21` [bendamustine], for which the “concentration above which proliferation was inhibited” value in data set [3] is “above 10 micromolar”. Further, the IC50 in data set [3] (Homo sapiens, 96 h) was roughly 90000 nM.

B1: IGF132: variant of IGF-1 with reduced binding to soluble IGF binding proteins, SEQ ID NO:4 (protein)
chain: FVNQHLCGSHLVEALYLVCGDRGFYFNKPTGYGSSSRRAPQTGIVDECCFRSCDLRRLEMYCAPLKPAKSA
For B1, the stability to storage entry in data set [4] was “breaks down to produce a significant amount of smaller molecular weight fragments”.

B2: 764IGF: His6-K5-IGF132 fusion protein, SEQ ID NO: 18 (protein)
chain: MVKGKHHHHHHNGKGKSKFVNQHLCGSHLVEALYLVCGDRGFYFNKPTGYGSSSRRAPQTGIVDECCFRSCDLRRLEMYCAPLKPAKSA
Regarding B2, the Kd in data set [5] is roughly 100 nM.

B3: 403IGF: His6-IGF fusion protein, SEQ ID NO: 14 (protein)
chain: MTSGHHHHHHSAGVNGFVNQHLCGSHLVEALYLVCGDRGFYFNKPTGYGSSSRRAPQTGIVDECCFRSCDLRRLEMYCAPLKPAKSA
With B3, the Kd in data set [5] was roughly 2 nM.

B4: LR3IGF: commercial Long-R3-IGF variant of IGF-1 (Sigma Aldrich), SEQ ID NO:5 (protein)
chain: MFPAMPLSSLFVNGPRTLCGALVDALQFVCGDRGFYFNKPTGYGSSSRRAPQTGIVDECCFRSCDLRRLEMYCAPLKPAKSEA
Consider B4, for which the values for the Kd in data set [5] and in data set [6] were roughly 1 nM and roughly 3 nM, respectively.

B5: LR3IGF-MTX (conjugate)
chain: B4 chain
For B5, the IC50 was roughly 400 nM in data set [7]; 99 nM in data set [8] (DHFR, concentration of conjugated MTX groups, read-out: IC50); 35 nM in data set [8] (IC50 in nEq/L divided by MTX per IGF, read-out: inhibition constant in terms of protein concentration).

B6: 785IGF: mutTrx-IGF132 fusion protein, SEQ ID NO: 16 (protein)
chain: MVKQIESKTAFQEALDAAGDKLVVVDFSATWCGHCKMIKPFFHSLSEKYSNVIFLEVDVDDSQDVASESEVKSMPTFQFFKKGQKVGEFSGANKEKLEATINELVGSKSGHHHHHHSAKGFVNQHLCGSHLVEALYLVCGDRGFYFNKPTGYGSSSRRAPQTGIVDECCFRSCDLRRLEMYCAPLKPAKSA
In the case of B6, the Kd in data set [5] is roughly 40 nM.
